The nature of this data set: label from the status in PepcDB records.
On to “MTALRQDIDPNGLLEYSVVYTDRALNHMSKAFQEVMNDLLSNLKTVYNAEAAVIIPGSGTYGMEAVARQLTIDEDCLIIRNGWFSYRWTQILEKGKFAKSSTVLTAERTEDTEAPKPFAPVDIETAVAKIKEDKSAIVYAPHVETSSGIILSEEYIKALSEAVHSVGGLLVIDCIASGCVWLDMKELGIDVLISAPQKGWSSTPCAGLVMLSAAAIKKVESTESNCFSLDLKQWLTIMRAYENGGHAYHATMPTDSLRQFRDAILEAKEIGFDILRDAQWELGNRVRKVLTDKGIESVAAEGFEAPGVVVSYTERDDMHKGSAFAEAGLQIAAGVPLKVGEPDNFKTFRLGLFGLDKLTDIDGTVERFEKALDEVLAK”, for which the protein production entry was “not failed”. The result for “MAKIHVLEKHVAELIAAGEVVERPSSVIKELVENSIDAGATTISVEIQRGGIAYMRVTDNGGGIAREDVPKAFLRNATSKVESAEDLDGIGTLGFRGEALASICAVSRVTLLTRTEEELAGTSYQIEGGEELALEDAGCAKGCTIVVRDLFYNTPARMKFLKKDVSEANAVAGVMDRAALSHPEISFRFVRDHKETLSTPGDRQLRSCIYAVYGKDFTAGLIPVDYAYNGIKVRGFISKPSAARPNRSMQHFFINGRFVKSKTAMVALEQAFKGSIMAGKFPSCVLHLSVPWEAVDVNVHPSKIEVRFLNEKPIFDAVYHGVKSALLSGDQRKEMILPRPKLDPPASQPEQIRLAAKPAIGSAAQETAEKEARLLTSQTEQAPNSSLGAYEKVVSSSAGRLAQPQQAPLGKAPDKAFPQTASGPAVAGTSHIGENAADKKPPSSLPGIGAAGRIPVPYEENEPEIYLPVKRQTAIPAVRDFISSPFSFSDEASKPKAAGEAPGDTGFEAAAADRGRKAEPKAQELSEEAAGEKPESSRQAAAAEPPREEAGLQPFGEKRQRLVGEAFRTYLIIEYGDDELLLIDKHAAHERILYEKLKKESGKSCAQYLLEPIPVTLDKNEYAAVLENQKLFWEAGFEVEDFGGGSVLVRSAPLSLEQEDIASSLMEIAGHLLENKTDMSTEKLDWLYHNIACRAAVKAGQITSDQELIALAVALRENPEIRYCPHGRPVSITLKKREIEKQFGRIQ” reads “failed”; that for “MDKQAILDNIHQTWQEEANAISRLPEVTSEEALVKTVEKIAECTGKIVVAGCGTSGVAAKKLVHSFNCIERPAVFLTPSDAVHGTLGVLQKEDILILISKGGNTGELLNLIPACKTKGSTLIGVTENPDSVIAKEADIFFPVSVSKEPDPFNMLATASTMAVIASFDAVIVCLMTYMNYTKEQFSVIHPGGAVGNKLLNK”, “not failed”; that for “MNWIPLEQLLLKLHTPRAVSAAPAIDLGAVQEQALSLAAALQARGVRRLAVHLEDAVELAVALLGAWRAGASVLLPADLQAQTRQRWSSEVDLWLTDQDTPLHQLQASPLAPAELDPDTCQLSLCTSGSSGEPKRIEKNLRQLANEVVALEHLWGADLGQAWIIGSVATQHIYGLLFRVLWPLCAGRPFVRRQLPFPEDLQRASRECPAFAWVASPALLKRMGDNLDWPALSQVRRVFSSGGALPAEAASGLHQRLQQWPTEILGSSETGGIAWRQGPGLWQPFADVRLSQDADGALLIASPYLPAGHVEHTADAARIAADGRFELLGRLDRIVKLEEKRISLPMLEQALASHEWVAEARLGVIEDNRAYLGALLVLSEPGLHALRNQGRRHLTQALRQHLAGHCEALALPRRWRLVRQLPLNSQGKLPQAQVQALLLAPRPQAPEVLEQRQHEEEWQLQLAIPPDLAYFSGHFPQTPVLPGVVQVDWALALGQQLLELPGRFAGMEVLKFQQLVRPGDRIQLNLRFDAQRQKLYFAYLNDGAPCSCGRIVLEASCG”, “failed”. For “SSQQRPARKLPSLLLDPTEETVRRRCRDPINVEGLLPSKIRINLEDNVQYVSMRKALKVKRPRFDVSLVYLTRKFMDLVRSAPGGILDLNKVATKLGVRKRRVYDITNVLDGIDLVEKKSKNHIRWIGSDLSNFGAVPQQKKLQEELSDLSAMEDALDELIKDCAQQLFELTDDKENERLAYVTYQDIHSIQAFHEQIVIAVKAPAETRLDVPAPREDSITVHIRSTNGPIDVYLCEVEQGQTSNKRSEGVGTSSSESTHPEGPEEEENPQQSEELLEVSN”, the protein production result is on record as “failed”.

“MKTMNYSLIRILFALVIGLVLVLWPNTAASYIVITIGVAFLIPGVISLFSFFGRKRSEHEPAPRFPIEGIGSLLFGLWLIVMPEFFADVLMFLLGFILIMGGVQQIASLSMARRWTPVPGIFYLVPSLILIAGVIALFNPTGVRNTAFIIIGISSLVYSLSELINWFKFARRRPKTPVTPHDEDIEDAKIIE”: the protein production result is given as “failed”. With “MAKLSPTTRIFALVIKEILTLFKDPKGRIVLIAPPLLQLLIFSFAATMEIKNISIGILNQDFGKHGYEVIQRFIGSPTFSKVFFIQKQSDIKPIIDNQEAMVVMTIPQDFSRKIESNSQANIQLILDGRRSNATQIVNGYISSIIENYNQEIQKTHGAIMTPPVMVTRSWFNENLLYLWFTVPSLVCILSMLISLVVTALSVARERELGTFDQLLVSPLTPYEILIGKTIPAIIIGLAEGLLMWVAAVWLFDVPFYGSPLLMVYILFIFIMSTVGVGLFISSMCKTQQQAILGVFIYMVPVVTLSGYASPVENMPEWLQDLTWFNPLKFTLIAVIGIFLKGMSALEVFITTWPLLLVGAVTLFIAGWFFKQRME”, the protein production result was “failed”. The result for “MVTLLVLRMISAITRKTPVKTLSKRSKTFNETAGGEGGGGAIKLITINVHIRYSFTMITISQYFHLVDELRNCTRKVWSTYPKELIELLRDSMVTH” reads “failed”; that for “MSSDCLNVSYPATGCQKLFEVVDEHKLRVFYEKRMGQVVEADILGDEWKGYQLRIAGGNDKQGFPMKQGVLTHGRVRLLLKKGHSCYRPRRTGERKRKSVRGCIVDANMSVLALVVLKKGEKDIPGLTDTTIPRRLGPKRASKIRKLYNLSKEDDVRRFVVRRPLPAKDNKKATSKAPKIQRLITPVVLQRKHRRIALKKKRQIASKEASADYAKLLVQRKKESKAKREEAKRRRSASIRESKSSVSSDKK”, “failed”. The result for “MKVIEVTHPIQSNQFITENVAMAFGFFDGMHRGHDKVFQVLDEKAKEHQLKKAVMTFDPHPSVVLNPERKRTTYLTPLSDKLEMIAEHGIDYCIVINFSSRFANVTSDDFIKNYIINNHVKEVIAGFDFTFGKFGKGNMTVLQESKAFNTTIVGKQEMDSEKISTTAIRQALTDGHLQKANDELGYIYRIKGTVVQGEKRGRTIGFPTANVQPSDDYVLPKKGVYAVSMEIGPESKLHRGVANVGVKPTFHDPTRAELVIEVNIFDFNENIYGERVTVYWHHFLRPEVKFDGIDPLVKQMNEDKAQAKHLLSIDFDDDISYNI” reads “failed”.

Take “MGAMHVLTLDLAPVTPKDAPLLHRVFHLSPSYFALIGMELPTLEDVVRDLQTLEVDPRRRAFLLFLGQEPVGYLDAKLGYPEAEDATLSLLLIREDHQGRGLGRQALERFAAGLDGVRRLYAVVYGHNPKAKAFFQAQGFRYVKDGGPTLTWYVRPL”: the protein production result was “not failed”. The result for “MSPRSIAMCGRCGIRARHSVAPDCCLSVRQATNKCPAVEHHSHGGRRPCTANGGVAFDRFVMTNRFSPRARSTRIVSKVVWRKRSGRDDENKKTRGEHDMSASVQSALSGLVLAAAVAMPALADGLKDEIAPTGKLRVAIAISPAGGAFWSTRTETGYAGVPVDLGKEMAAQLGVGVEYVVHQNSGQITDAASKGTWDVTWLPKDPERESKMMFGPIYEVADATYIVKAGSNVTSFASLDQPGIKVAAVNATTTMRGAVAHLRNAEVTGYQTYDEIFGLLKSGEIDAFALSRDQLNKMAQKIPGTKVLDETFKKTVTAVAVPLGHSLALTFVTKFMNEATINGTLRKAYDNNGLKDSPIRTE” reads “failed”; that for “MKERVIITGANGQLGKQLQEELNPEEYDIYPFDKKLLDITNISQVQQVVQEIRPHIIIHCAAYTKVDQAEKERDLAYVINAIGARNVAVASQLVGAKLVYISTDYVFQGDRPEGYDEFHNPAPINIYGASKYAGEQFVKELHNKYFIVRTSWLYGKYGNNFVKTMIRLGKEREEISVVADQIGSPTYVADLNVMINKLIHTSLYGTYHVSNTGSCSWFEFAKKIFSYANMKVNVLPVSTEEFGAAAARPKYSIFQHNMLRLNGFLQMPSWEEGLERFFIETKSH”, “not failed”. The result for “MDESKKISLGQFFTPTHIVKYMIGLMTKNKNASILEPSSGNGVFLDSLIQLGYTNLTSYEIDGDIISHPFVINSSFITSYDKPQYDSIIGNPPYVRWKNLSELQKKELKDNSIWKMYCNSLCDYFYIFIIKSILQLKVGGELIFICPDYFFSTKNAEGLRKFLINNGSFEKIILFNESKVFHGVSSSVVIFKYIKGKNIDNINIINIDSKSPIKSEDIE” reads “failed”.

The record behind these values is a protein production outcome set (Wang et al. 2014).
